# Measured values reported in patent publication US20260028401A1 (SHENGHE CHINA BIOPHARMACEUTICAL, published 2026).
# B1: the antibody of the present invention (anti-ILT4 single-domain antibody, alpaca VHH, SEQ ID NO: 4) (VHH)
# VHH: EVQLVESGGGLGQAGGSLRLSCVVSGRTFSRYAMGWFRQAPGKEREFVAAISWSPGDITTYADSVRGRFTISRDNAKNTVYLQMNSLKPEDTAVYYCAADPTAWGTQYDYWGQGTQVTVSS
# notes: VHH screened from an alpaca immune library
# Columns and labels:
# [1] = molecular target: T1, ILT4 on CHO-ILT4 cells (Manufacturer: Kang Yuan Bochuang, Cat: KC-1473) (UniProt Q8N423 22-597, limits assumed); test: flow cytometry on CHO-ILT4 cells, 7-point 5-fold titration, anti-VHH PE detection
# T1 construct: whole, on cells; also called ILT4 cell line
# [2] = molecular target: T2, Human LILRB2/CD85d/ILT4 Protein, His Tag (Manufacturer: KACTUS, Cat: LIL-HM4B2) (human, UniProt Q8N423 22-460, limits assumed); test: BLI (ForteBio, AHC biosensors), ILT4 His protein loaded as written, antibody at 100 nM, 180 s association, 200 s dissociation; non-humanized antibody of the invention
# T2 construct: Bought recombinant protein; not shown: His tag
# Procedure: AHC Biosensors (Manufacturer: ForteBio. Inc., Cat: 18-5060) were pre-wetted for 20 min using PBST buffer and added to Human LILRB2/CD85d/ILT4 Protein, His Tag (Manufacturer: KATUS, Cat: LIL-HM4B2) protein diluted to 20 μg/mL using PBST to a target protein loading thickness of 1 nm. The antibody of the present invention and the antibody (humanized antibody) of the present invention (VHH and Fc sequences were SEQ ID NO: 6 and SEQ ID NO: 7, respectively) was diluted to 100 nM using PBST and added to the above sensor, and bound for 180 s and dissociated for 200 s.
# T1 sequence (Q8N423 22-597 limits assumed): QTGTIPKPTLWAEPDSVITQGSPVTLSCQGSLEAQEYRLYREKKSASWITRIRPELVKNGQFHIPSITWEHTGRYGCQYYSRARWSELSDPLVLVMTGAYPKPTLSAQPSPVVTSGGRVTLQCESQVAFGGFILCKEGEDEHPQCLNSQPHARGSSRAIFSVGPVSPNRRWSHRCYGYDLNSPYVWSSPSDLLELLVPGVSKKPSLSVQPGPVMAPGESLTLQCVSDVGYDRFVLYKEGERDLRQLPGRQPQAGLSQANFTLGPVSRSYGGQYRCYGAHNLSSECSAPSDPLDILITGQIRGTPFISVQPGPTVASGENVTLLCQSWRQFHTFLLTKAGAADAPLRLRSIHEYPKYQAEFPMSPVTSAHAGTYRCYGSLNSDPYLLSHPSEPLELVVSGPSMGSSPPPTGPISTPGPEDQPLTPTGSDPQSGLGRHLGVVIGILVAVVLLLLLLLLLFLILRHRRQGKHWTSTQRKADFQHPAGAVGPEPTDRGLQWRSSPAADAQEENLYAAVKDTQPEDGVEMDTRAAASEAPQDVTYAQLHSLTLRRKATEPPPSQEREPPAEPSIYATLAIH
# T2 sequence (Q8N423 22-460 limits assumed): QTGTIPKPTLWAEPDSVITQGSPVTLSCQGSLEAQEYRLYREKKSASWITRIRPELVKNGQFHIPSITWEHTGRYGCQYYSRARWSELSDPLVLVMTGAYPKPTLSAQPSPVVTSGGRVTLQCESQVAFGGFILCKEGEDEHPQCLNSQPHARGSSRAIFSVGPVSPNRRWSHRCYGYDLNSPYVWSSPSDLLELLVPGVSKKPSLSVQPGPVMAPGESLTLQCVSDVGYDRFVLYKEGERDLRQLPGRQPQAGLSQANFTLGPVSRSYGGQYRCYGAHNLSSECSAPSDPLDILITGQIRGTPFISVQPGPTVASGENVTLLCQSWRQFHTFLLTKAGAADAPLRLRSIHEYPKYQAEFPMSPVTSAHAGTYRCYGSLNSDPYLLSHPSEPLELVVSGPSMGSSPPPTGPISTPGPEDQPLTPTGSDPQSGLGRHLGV
binder,measurement,setting,value
B1,EC50,[1],0.36 µg/mL
same,Kd,[2],0.107 nM
